{"source": "paper PMC4484258", "about": "“Identification of BST-2/tetherin-induced hepatitis B virus restriction and hepatocyte-specific BST-2 inactivation” (Scientific Reports, 2015)", "binders": {"B1": {"name": "BST-2 with an internal HA tag (BST-2 IHA), wild type (natural protein)", "chain": "MASTSYDYCRVPMEDGDKRCKLLLGIGILVLLIIVILGVPLIIFTIKANSEACRDGLRAVMECRNVTHLLQQELTEAQKGFQDVEAQAATCNHTVMALMASLDAEKAQGQKKVEELEGEITTLNHKLQDASAEVERLRRENQVLSVRIADKKYYPSSQDSS"}}, "target": "HBV enveloped particles (HBsAg) released from cells transfected with the pCMV ayw HBV proviral construct (hepatitis B virus (ayw), UniProt P03138-1 1-389; P03138-2 1-281; P03138-3 1-226)", "sequence (P03138 whole entry, chain 1 of 3)": "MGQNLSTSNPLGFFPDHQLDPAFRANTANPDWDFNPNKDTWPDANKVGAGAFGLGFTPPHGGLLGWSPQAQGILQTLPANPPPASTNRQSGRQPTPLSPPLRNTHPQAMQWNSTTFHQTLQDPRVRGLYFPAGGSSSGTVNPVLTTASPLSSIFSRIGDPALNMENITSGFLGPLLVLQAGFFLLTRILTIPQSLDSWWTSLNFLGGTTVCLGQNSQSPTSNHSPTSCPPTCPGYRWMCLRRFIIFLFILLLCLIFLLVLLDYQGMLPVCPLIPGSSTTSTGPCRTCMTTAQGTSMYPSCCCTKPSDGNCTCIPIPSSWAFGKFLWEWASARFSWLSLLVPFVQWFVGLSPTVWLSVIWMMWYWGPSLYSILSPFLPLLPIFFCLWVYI", "sequence (P03138 109-389, chain 2 of 3)": "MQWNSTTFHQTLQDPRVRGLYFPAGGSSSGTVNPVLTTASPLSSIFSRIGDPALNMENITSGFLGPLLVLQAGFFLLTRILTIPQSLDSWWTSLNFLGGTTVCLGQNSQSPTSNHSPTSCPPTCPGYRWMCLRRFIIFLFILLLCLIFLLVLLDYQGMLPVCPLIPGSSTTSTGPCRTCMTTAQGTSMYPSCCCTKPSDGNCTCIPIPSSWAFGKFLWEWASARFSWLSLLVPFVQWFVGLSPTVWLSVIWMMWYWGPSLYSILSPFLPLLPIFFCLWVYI", "sequence (P03138 164-389, chain 3 of 3)": "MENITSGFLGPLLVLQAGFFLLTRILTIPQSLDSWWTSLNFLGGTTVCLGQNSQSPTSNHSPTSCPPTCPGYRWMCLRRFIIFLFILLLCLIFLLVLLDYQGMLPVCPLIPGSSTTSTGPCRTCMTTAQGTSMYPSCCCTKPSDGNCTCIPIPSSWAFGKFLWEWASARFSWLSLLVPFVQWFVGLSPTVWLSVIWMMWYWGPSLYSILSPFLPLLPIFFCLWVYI", "experiment": "cell-based or functional assay", "data": [{"binder": "B1", "values": [{"measurement": "BST-2-induced NF-κB signaling (pNF-κB-Luc reporter in 293T cells) in the presence of HBV expression", "result": "~10", "unit": "fold"}]}]}
